Columns and labels:
[1] = molecular target: Ku5D T305D;S306D;T307D;S314D;T316D (human) (UniProt P12956+P13010); assay: MST; settings: MST: 50 mM Tris pH 8.0, 50 mM NaCl, 1 mM DTT, 24 C, 40 nM FAM-RNA, EMSA: 25 mM Hepes-KOH pH 7.5, 50 mM NaCl, 1 mM EDTA, 10% glycerol, 0.1 uM BSA …
[2] = molecular target: Ku70/Ku80 heterodimer FL (baculovirus) (human) (UniProt P12956+P13010); assay: MST; settings: 1 mM DTT, 24 C, 40 nM FAM-RNA, EMSA: 25 mM Hepes-KOH pH 7.5, 50 mM NaCl, 1 mM EDTA, 10% glycerol, 0.1 uM BSA …
[3] = MST: 50 mM Tris pH 8.0, 50 mM NaCl

Chain of Ku70/Ku80 heterodimer FL (baculovirus) (human) (P12956 whole entry, chain 1 of 2): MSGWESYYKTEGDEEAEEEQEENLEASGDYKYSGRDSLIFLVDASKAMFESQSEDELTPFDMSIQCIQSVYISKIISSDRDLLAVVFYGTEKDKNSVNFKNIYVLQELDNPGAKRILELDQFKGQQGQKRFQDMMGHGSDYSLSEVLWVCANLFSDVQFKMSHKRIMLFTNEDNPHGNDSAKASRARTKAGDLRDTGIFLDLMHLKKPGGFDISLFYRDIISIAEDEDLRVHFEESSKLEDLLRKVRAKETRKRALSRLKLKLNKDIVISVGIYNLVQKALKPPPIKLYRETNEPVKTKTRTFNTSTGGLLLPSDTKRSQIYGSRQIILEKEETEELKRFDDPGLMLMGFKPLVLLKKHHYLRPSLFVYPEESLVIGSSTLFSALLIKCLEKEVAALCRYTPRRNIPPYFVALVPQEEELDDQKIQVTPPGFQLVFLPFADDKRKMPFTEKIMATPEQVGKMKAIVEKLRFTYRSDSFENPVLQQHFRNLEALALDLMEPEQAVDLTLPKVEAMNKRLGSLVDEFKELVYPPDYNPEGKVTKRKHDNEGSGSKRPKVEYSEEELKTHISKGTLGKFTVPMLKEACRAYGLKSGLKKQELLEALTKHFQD
Chain of Ku70/Ku80 heterodimer FL (baculovirus) (human) (P13010 1-718, chain 2 of 2): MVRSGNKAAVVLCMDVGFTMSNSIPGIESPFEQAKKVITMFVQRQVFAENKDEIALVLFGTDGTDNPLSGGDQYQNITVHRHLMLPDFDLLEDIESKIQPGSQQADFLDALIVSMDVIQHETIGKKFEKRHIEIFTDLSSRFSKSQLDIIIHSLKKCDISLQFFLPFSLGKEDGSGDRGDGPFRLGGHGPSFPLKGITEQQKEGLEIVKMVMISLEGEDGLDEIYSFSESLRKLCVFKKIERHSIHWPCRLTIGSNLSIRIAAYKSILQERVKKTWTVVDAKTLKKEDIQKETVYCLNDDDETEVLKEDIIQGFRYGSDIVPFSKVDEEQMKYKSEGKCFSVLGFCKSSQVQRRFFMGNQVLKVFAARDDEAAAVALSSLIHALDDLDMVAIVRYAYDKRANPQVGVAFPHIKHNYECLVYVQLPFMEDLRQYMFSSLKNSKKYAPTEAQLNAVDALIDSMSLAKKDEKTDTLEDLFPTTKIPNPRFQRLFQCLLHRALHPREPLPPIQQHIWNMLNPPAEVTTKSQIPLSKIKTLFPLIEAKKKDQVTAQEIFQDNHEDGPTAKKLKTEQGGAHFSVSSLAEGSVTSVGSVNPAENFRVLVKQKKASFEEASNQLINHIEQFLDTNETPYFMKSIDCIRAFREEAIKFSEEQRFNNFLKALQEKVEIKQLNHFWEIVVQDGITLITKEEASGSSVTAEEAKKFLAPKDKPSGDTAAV
Chain of Ku5D T305D;S306D;T307D;S314D;T316D (human) (P12956 whole entry T305D/S306D/T307D/S314D/T316D, chain 1 of 2): as the sequence (P12956 whole entry, chain 1 of 2) above, with T305D, S306D, T307D, S314D, T316D counted along it
Chain of Ku5D T305D;S306D;T307D;S314D;T316D (human) (P13010 1-718, chain 2 of 2): as the sequence (P13010 1-718, chain 2 of 2) above

| Substance | binding signal (fold better than WT) [1] | Kd ([2]; Hill 1.0, MST: 50 mM Tris pH 8.0, 50 mM NaCl) [µM] | Kd [2, 3] [µM] |
| --- | --- | --- | --- |
| FL LINP1 | 2 | 0.74 | – |
| LINP1 SL2 + SL3 | – | – | 0.7 |
| polyA | – | – | 4.8 |
| polyC | – | – | 1.29 |
| polyU | – | – | 1.4 |

Reference: publication PMC7641761
